Experimental data reported in PMC6838200 (2019).

Tests used:
[1] = target: T1, Spa2-C (Spa2 C-terminal region, 1306-1466aa) (S. cerevisiae, UniProt P23201 1306-1466); assay: SPR; bivalent model, koff1
T1 chain: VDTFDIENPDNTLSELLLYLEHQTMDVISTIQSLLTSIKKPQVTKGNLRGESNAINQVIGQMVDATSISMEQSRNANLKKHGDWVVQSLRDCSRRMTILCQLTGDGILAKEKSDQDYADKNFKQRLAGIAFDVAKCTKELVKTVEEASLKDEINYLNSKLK

[2] = target: T1, Spa2-C (Spa2 C-terminal region, …); assay: SPR; bivalent model, koff2 (second site)

B1: Aip5-N271 (domain or fragment)
chain: MVESLTVENQEHNVQPPSVTSAGDSYSTLATDLPLPSTNDIIESRDQLTESDLDEAINATENFAQELSSQRKSSKLKGHKKKNQGQIKANRDRDTIVKLSSSVGETEEASTRDAISHDLERKDDVIEIATDTINDATESPTQIPIDVNVVIKETSTNNVAEGTENVPPIKESTGIEVGNSPITRRKKNKKKKTTNRRGRNSSNPADTTDLSKQSTLDSILVGIEEYLQEDGSKNEDIKVNIVQDEPVNVEKMDIRTRNESSDKTFDIDVPN
[1]
  koff: 0.046 s⁻¹
[2]
  koff: 0.00266 s⁻¹
